# Source: patent US20220220508, “ENGINEERED CASX SYSTEMS” (Scribe Therapeutics Inc., published 2022)
# Molecular target: CasX2 (StX2, wild-type reference CasX) (Planctomycetes)
# Assay: cleavage_in_vitro; kcleave; TTC PAM
# Conditions: tags: N-terminal SV40 NLS, C-terminal NLS, TEV site and twin Strep tag; label: fluorescent
# Method: In vitro cleavage assays were performed essentially as described in Example 19, using CasX 2 (SED ID NO:2), CasX 119, and CasX 438 complexed with single guide 174 with spacer 7.37 targeted against B2M. Fluorescently labeled dsDNA targets that would be complementary with a 7.37 spacer and either a ITC, CTC, CTC, or ATC PAM were used (The DNA sequences used to generate each dsDNA substrate are shown in Table 29. The PAM sequences for each are bolded. TS—target strand. NTS—Non-target strand). Target DNA was incubated with a 20-fold excess of the indicated RNP and the amount of cleaved target was determined at the indicated. time points. The monophasic fit of the combined replicates is shown. During the assay, samples were taken at 0.25, 0.5, 1, 2, 5, 10, 30, and 60 minutes. Gels were imaged with an Amersham Typhoon and quantified using the IQTL 8,2 software. Apparent first-order rate constants for non-target strand cleavage (kcleave) were determined for each Casx:sgRNA complex on each target. Rate constants for targets with non-TTC PAM were compared to the TIC PAM target to determine whether the relative preference for each PAM was altered for a given CasX variant. The results are shown in FIG. 73 (the monophasic fit of the combined replicates is shown) and Table 30. […]
binder,measurement,value
sgRNA 174.7.37 ; 7.37 TTC PAM target (ssRNA ; dsDNA) RNA: ACUGGCGCUUUUAUCUGAUUACUUUGAGAGCCAUCACCAGCGACUAUGUCGUAGUGGGUAAAGCUCCCUCUUCGGAGGGAGCAUCAAAGGGCCGAGAUGUCUCGCUCCG DNA 1: TGAAGCTGACAGCATTCGGGCCGAGATGTCTCGCTCCGTGGCCTTAGCTGTGCTCGCGCT DNA 2: AGCGCGAGCACAGCTAAGGCCACGGAGCGAGACATCTCGGCCCGAATGCTGTCAGCTTCA,activity,0.267 min⁻¹
